What was measured:
[1] = biological target: HIV-1 envelope TRO.11 (subtype B) (HIV-1)
[2] = biological target: HIV-1 envelope CAP45.G3 (subtype C) (HIV-1)
[3] = biological target: HIV-1 envelope Du172.17 (subtype C) (HIV-1)
[4] = biological target: HIV-1 envelope Du422.01 (subtype C) (HIV-1)
[5] = biological target: HIV-1 envelope Q23.17 (subtype A) (HIV-1)
[6] = biological target: HIV-1 envelope ZM233.6 (subtype C) (HIV-1)
[7] = biological target: HIV-1 envelope Du156.12 (subtype C) (HIV-1)
[8] = biological target: HIV-1 envelope CAP214.15 (subtype C) (HIV-1)
[9] = biological target: HIV-1 envelope Q168.a2 (subtype A) (HIV-1)
[10] = biological target: HIV-1 envelope QH0692.42 (subtype B) (HIV-1)
[11] = biological target: HIV-1 envelope Q842.d12 (subtype A) (HIV-1)
[12] = biological target: HIV-1 envelope ZM197.7 (subtype C) (HIV-1)
[13] = biological target: HIV-1 envelope CAP210.E8 (subtype C) (HIV-1)
[14] = biological target: HIV-1 envelope Q461.e2 (subtype A) (HIV-1)
[15] = biological target: HIV-1 envelope 6535 (subtype B) (HIV-1)

Substance	IC50 of neutralisation of HIV-1 pseudovirus, TZM-bl assay [1]	IC50 of neutralisation of HIV-1 pseudovirus, TZM-bl assay [2]	IC50 of neutralisation of HIV-1 pseudovirus, TZM-bl assay [3]	IC50 of neutralisation of HIV-1 pseudovirus, TZM-bl assay [4]	IC50 of neutralisation of HIV-1 pseudovirus, TZM-bl assay [5]	IC50 of neutralisation of HIV-1 pseudovirus, TZM-bl assay [6]	IC50 of neutralisation of HIV-1 pseudovirus, TZM-bl assay [7]	IC50 of neutralisation of HIV-1 pseudovirus, TZM-bl assay [8]	IC50 of neutralisation of HIV-1 pseudovirus, TZM-bl assay [9]	IC50 of neutralisation of HIV-1 pseudovirus, TZM-bl assay [10]	IC50 of neutralisation of HIV-1 pseudovirus, TZM-bl assay [11]	IC50 of neutralisation of HIV-1 pseudovirus, TZM-bl assay [12]	IC50 of neutralisation of HIV-1 pseudovirus, TZM-bl assay [13]	IC50 of neutralisation of HIV-1 pseudovirus, TZM-bl assay [14]	IC50 of neutralisation of HIV-1 pseudovirus, TZM-bl assay [15]
CAP256-VRC26.25 produced in HEK293 (antibody)	> 50 µg/mL	0.0013 µg/mL	> 50 µg/mL	0.11 µg/mL	0.0014 µg/mL	0.0044 µg/mL	0.15 µg/mL	3.12 µg/mL	1.73 µg/mL	> 50 µg/mL	> 50 µg/mL	0.11 µg/mL	0.0012 µg/mL	0.67 µg/mL	> 50 µg/mL
CAP256-VRC26.25 produced in N. benthamiana (ΔXTFT) with Cas9/sgRNAs coexpression (antibody)	> 50 µg/mL	0.0013 µg/mL	> 50 µg/mL	0.2 µg/mL	0.0016 µg/mL	0.005 µg/mL	0.041 µg/mL	2.77 µg/mL	3.05 µg/mL	> 50 µg/mL	> 50 µg/mL	0.098 µg/mL	0.0014 µg/mL	1.61 µg/mL	> 50 µg/mL
CAP256-VRC26.25 produced in N. benthamiana (ΔXTFT) without Cas9/sgRNAs coexpression (antibody)	> 50 µg/mL	0.0014 µg/mL	> 50 µg/mL	0.1 µg/mL	0.0016 µg/mL	0.0042 µg/mL	0.034 µg/mL	4.31 µg/mL	2.94 µg/mL	> 50 µg/mL	> 50 µg/mL	0.056 µg/mL	0.0015 µg/mL	1.73 µg/mL	> 50 µg/mL

Reference: article PMC9433777
